Data taken from the supplement of paper PMC12764529.
± gives the half width of the 95% confidence interval.

How the values were obtained:
[1] = folding stability dG unfold from trypsin proteolysis; higher = more stable
Procedure, shortened: (§1)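 K50 was inferred by Bayesian fitting of sequencing counts obtained after protease digestion of designed mini-proteins. Unfolding free energy was derived by comparison with a sequence-predicted unfolded-state K50 and a shared folded-state K50, for each protease or both combined. The mini-proteins were under 80 residues, had no cysteine, were carried in a PA-tagged cDNA display construct, and were kept only if AlphaFold2 dimer inter-PAE exceeded 15.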

[2] = folding stability dG unfold from chymotrypsin proteolysis; higher = more stable
Procedure, shortened: as §1

[3] = folding stability dG unfold (combined trypsin and chymotrypsin); higher = more stable
Procedure, shortened: as §1

Sequence | folding stability dG unfold [1] | folding stability dG unfold [2] | folding stability dG unfold [3]
SAGGRIHIPIPLNQAREILKKLAPDGRDVTAEPQGPSKDNVYYTIEFEPPKNGNEVDIEIWIPPPGDSAGGS [r16_486_TrROS] | -0.000485 ± 0.1 kcal/mol | -0.234 ± 0.36 kcal/mol | 0.0968 ± 0.18 kcal/mol
SAGGRIRIEYDPENGTITIYVPTPDGEITPDQVEEIAKLLMELWPNIEVEIEPHPNGMVRITIKIPPKSAGG [r13_291_TrROS] | 3 ± 0.19 kcal/mol | 3.81 ± 0.23 kcal/mol | 3.54 ± 0.19 kcal/mol
SAGGRIVEAAKEAGLDGVDLKEIRPLPDGGVEIRILPPPGMPEEAAAEAAERIERALREEFPDTRIDTESAG [r5_101_TrMRF] | -0.835 ± 0.33 kcal/mol | 0.207 ± 0.056 kcal/mol | -0.209 ± 0.31 kcal/mol
SAGGRRPVTAEEAADRLMKELGIPGLKNIKDVTMEYEVYDPDGKPWSRVDITIKIKMPPEQRDRLKKLSAGG [r13_552_TrROS] | 0.607 ± 0.12 kcal/mol | 0.436 ± 0.19 kcal/mol | 0.51 ± 0.16 kcal/mol
SAGGRTLEFNMKSNNPNMMENEISKLLRELGFPPGFDIEVNPERDPNGRYTYPITITVDNPELADKISAGGS [r8_85_TrROS] | 0.106 ± 0.43 kcal/mol | -0.00324 ± 0.54 kcal/mol | -0.0764 ± 0.42 kcal/mol
SAGGRVDVRVERVGEGAVITLLADVEDPEPLVELLEASGLPVELARIEPVRDPVTGRLLVRAVFRVPSAGGS [r16_699_TrMRF] | 1.12 ± 0.069 kcal/mol | 1.14 ± 0.082 kcal/mol | 1.13 ± 0.095 kcal/mol
SAGGSAAKIDPKNGTITIYNKKTGKKIKIKIKNLPPGAKVTIEIKNGKITIKVDGKTIEINIKEIKSAGGSA [r15_864_TrROS_Hall] | 2.1 ± 0.26 kcal/mol | 3.19 ± 0.19 kcal/mol | 2.85 ± 0.29 kcal/mol
SAGGSAAKITEVEVEELEDGEVLIRVKVKPEDIDALLELAKKLPEENIELVEKREDGYYVLRIKRPSAGGSA [r15_386_TrROS_Hall] | 1.53 ± 0.043 kcal/mol | 1.87 ± 0.16 kcal/mol | 1.67 ± 0.15 kcal/mol
SAGGSAAKPGETVRVVVTVRVPPGATAEELKAALEALLGPDAEVTVEVFETPDTVVVVVEVRLPPASAGGSA [r15_749_TrROS_Hall] | 2.65 ± 0.26 kcal/mol | 2.66 ± 0.11 kcal/mol | 2.74 ± 0.19 kcal/mol
SAGGSAATTVAVNGKEITIVSVDPATGKVTIAVPENVPESVIQAAKDLLEAQGLPVEVKRVPPEKLSAGGSA [r15_570_JUSTAS] | 1.42 ± 0.044 kcal/mol | 1.3 ± 0.013 kcal/mol | 1.33 ± 0.05 kcal/mol
SAGGSADADDVTIVINMFRNPNNKGWFFRIEIQDPDKEREIFMPFDDIPKFQEAGLKIEITEWYPFSAGGSA [r15_783_TrROS] | 2.41 ± 0.068 kcal/mol | 3.29 ± 0.038 kcal/mol | 3.03 ± 0.086 kcal/mol
SAGGSADENGKPKPTLIIKIEVEHPNGQKFPLSFIFKSPEEAEEIANELANNGYEVNIRLMPLDQISAGGSA [r15_906_TrROS] | 1.07 ± 0.024 kcal/mol | 1.71 ± 0.044 kcal/mol | 1.55 ± 0.059 kcal/mol
SAGGSADGRVVELPVRIRLYRRDPVSGRWELVEEFEVPVRVPAPKDAVVGLRIERRGDRFRIVVGVSAGGSA [r15_537_TrMRF] | 2.74 ± 0.08 kcal/mol | 3.537 ± 0.019 kcal/mol | 3.25 ± 0.07 kcal/mol
SAGGSADIARKIAKWLAEMYGIEEIKVKDIDPNGYIKVEIKMRMYDDGEPVEHKMDIEIPIPPGDLSAGGSA [r15_646_TrROS] | 1.3 ± 0.035 kcal/mol | 2.3 ± 0.031 kcal/mol | 1.98 ± 0.081 kcal/mol
SAGGSADPIRTISGPVPLEEIEANIKKLLKENPNLDAAVFYIPEIGSKITIYFKNGKIVKIEIDLSSAGGSA [r15_166_TrMRF] | 2.88 ± 0.084 kcal/mol | 4.79 ± 0.13 kcal/mol | 4.59 ± 0.16 kcal/mol
SAGGSADVVLVEVRPPVLDPEGRPLLTLVLRLPDGGSRTLVVELSDLAGALANLPPNVRVDEIRPLSAGGSA [r15_339_TrMRF] | 0.443 ± 0.093 kcal/mol | 2.31 ± 0.035 kcal/mol | 2.01 ± 0.067 kcal/mol
SAGGSAEEARALAEQVREEVRAAHAPDEVVTVTVELPDGTRVEVTFDAAGEVLSVTIYRPDGTPELSAGGSA [r2_84_JUSTAS] | 1.04 ± 0.025 kcal/mol | 2.27 ± 0.049 kcal/mol | 1.88 ± 0.077 kcal/mol
SAGGSAEEEVETVTLTVTVTVPPAPEVEVVSVEVERLPDGTLRVRAVVRLKDVPDRFVEVELTIRPSAGGSA [r15_627_TrROS_Hall] | 3.41 ± 0.12 kcal/mol | 2.95 ± 0.042 kcal/mol | 3.18 ± 0.16 kcal/mol

Sequence | folding stability dG unfold [1] | folding stability dG unfold [2] | folding stability dG unfold [3]
SAGGSAEELAKELAEKEGVKEVKVTVIKNKNGKLVLKVENKETNKTYEIELPEGAEVVEEITLKVKSAGGSA [r2_74_TrROS_Hall] | 0.106 ± 0.086 kcal/mol | 1.23 ± 0.061 kcal/mol | 0.923 ± 0.1 kcal/mol
SAGGSAEETIEIEIPLEDLKPRKDGKLTEEEIKERLRKLIEELTGKKPKEITVERDENGTLRITIRSAGGSA [r15_562_TrROS_Hall] | 1.46 ± 0.13 kcal/mol | 2.54 ± 0.18 kcal/mol | 2.2 ± 0.23 kcal/mol
SAGGSAEIPPGAKLEIDEMSFDPGNGRIEMMFKIEDPDGEPLWQIRVSWEFNPENGKMKLDIEIMPSAGGSA [r15_1028_TrROS] | 2.51 ± 0.19 kcal/mol | 3.8 ± 0.12 kcal/mol | 3.49 ± 0.14 kcal/mol
SAGGSAEITEIEIEEEGGRLRVRATVTNENGETFEFEAEIELPPPPPPEEVTLERDPETDEWKEVTSAGGSA [r15_335_TrROS_Hall] | 2.17 ± 0.06 kcal/mol | 2.39 ± 0.087 kcal/mol | 2.22 ± 0.12 kcal/mol
SAGGSAEKKVLKVKVEVVSVEVNEDGTVTVTAKVTFEDGLELTVTVTFDKETGELTIEVELRPLPPSAGGSA [r15_401_TrROS_Hall] | 2.42 ± 0.22 kcal/mol | 3.48 ± 0.15 kcal/mol | 3.13 ± 0.15 kcal/mol
SAGGSAEKPVRTLEITVTVPPGQPTPEELARALAEELGVEVTRVEVVRVERNEDGELTVTVRVEVKSAGGSA [r15_654_TrROS_Hall] | 3.2 ± 0.21 kcal/mol | 2.5 ± 0.14 kcal/mol | 2.99 ± 0.14 kcal/mol
SAGGSAELPSLGAEITVTEDPNRNTYTVTVPLVAPDGAPVGTLTVPFSSLEEARAFLRAQGLGELLSAGGSA [r15_127_JUSTAS] | 2.59 ± 0.031 kcal/mol | 2.836 ± 0.01 kcal/mol | 2.773 ± 0.016 kcal/mol
SAGGSAELVSVDVELEGRYLRVRARFRLPDGREVEVEVRFSLPGVPPAPPVFPYRDPETGELRLGLSAGGSA [r15_335_TrMRF] | 3.27 ± 0.056 kcal/mol | 3.614 ± 0.023 kcal/mol | 3.57 ± 0.14 kcal/mol
SAGGSAEPPEVTVEVLSVEPTPDGYLVVERVVTTPDGVLVYRTVFRPPDGKPVGTDWALFPNPDALSAGGSA [r15_716_TrMRF] | 2.17 ± 0.23 kcal/mol | 3.53 ± 0.041 kcal/mol | 2.95 ± 0.12 kcal/mol
SAGGSAEQTATIESVEYNEETGELTIRIRLENGEEVEITVKPDGTITITLPPGAKITEIEIERLPPSAGGSA [r15_959_TrROS_Hall] | 1.91 ± 0.15 kcal/mol | 2.3 ± 0.32 kcal/mol | 2.53 ± 0.35 kcal/mol
SAGGSAESIPVDELVELAKKLGLDVTVTPLPETGLVRVEITFTTPDGSKVPATVLVHPDGRTTVFPSAGGSA [r15_1051_TrMRF] | 1.82 ± 0.038 kcal/mol | 2.208 ± 0.018 kcal/mol | 2.08 ± 0.032 kcal/mol
SAGGSAFKGMPPEQVKRVIEIDHPNGKDIYIVRYKGPGHMMIFPPKEGKPIYIPMPLDEIKEFLLSSAGGSA [r15_810_TrROS] | 0.337 ± 0.054 kcal/mol | 0.672 ± 0.13 kcal/mol | 0.548 ± 0.094 kcal/mol
SAGGSAFRVQTWDDGKPRKIPIGESLDDLKDQIDDNPNYPIYIEFPNGKPFHMPWSDIKNMIDQLKSAGGSA [r15_36_TrROS] | 0.172 ± 0.17 kcal/mol | -0.196 ± 0.47 kcal/mol | -0.0315 ± 0.28 kcal/mol
SAGGSAGALLVRFNDPELVRELIEALPFDALVERDPDDPNVLLVTLFTDGPLEEAVRAVREALGLESAGGSA [r15_118_TrMRF] | 2.35 ± 0.039 kcal/mol | 3.25 ± 0.04 kcal/mol | 2.98 ± 0.086 kcal/mol
SAGGSAGDLELIGVFPFTLPDGRRITVPIFRDPSTGERYLFAETEGEEEDLTPAAIETALAVLERESAGGSA [r15_529_TrMRF] | 1.87 ± 0.051 kcal/mol | 2.09 ± 0.037 kcal/mol | 2.05 ± 0.084 kcal/mol
SAGGSAGGAEVVKVDPKPAGVTTVLERYPDGTLRLLKETEENGKLTVSEVETIPVPDISKPPLLSAGGSAGG [r6_836_JUSTAS] | -0.198 ± 0.075 kcal/mol | 0.164 ± 0.066 kcal/mol | 0.0779 ± 0.11 kcal/mol
SAGGSAGGAFTVTLPDGRPVRVRLLGATFTFEVRIPPGVPDVVPGAKPDEVVKVTRVVLVVSLDSAGGSAGG [r6_907_TrMRF] | 2.82 ± 0.13 kcal/mol | 4.57 ± 0.096 kcal/mol | 4.16 ± 0.14 kcal/mol
SAGGSAGGANDPEMPKPKRVEITIPPDEEIRNPNGKEMPVEQAREYAEYLADRYGIDVEITISPSAGGSAGG [r6_162_TrROS] | -0.406 ± 0.29 kcal/mol | 0.215 ± 0.43 kcal/mol | -0.202 ± 0.41 kcal/mol
